Legend:
[1] = molecular target: T1, Recombinant human CD4 (R&D Systems, Cat. 10327-CD) (human, UniProt P01730 26-390, limits assumed); test: BLI Octet, non-clonal supernatant on AMC sensor, 100 nM human CD4;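 also: hybridoma supernatants diluted 1:3, antibodies captured on AMC biosensors, association and dissociation with CD4 followed, curves smoothed and fit locally with 1:1 binding model for single-point kinetics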
T1 construct: Bought reagent; also called huCD4

[2] = molecular target: T1, Recombinant human CD4 (R&D Systems, …); test: BLI Octet, non-clonal supernatant on AMC sensor, 100 nM human CD4, 1:1 local fit;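 also: Single-concentration kinetics per supernatant, with the 1:1 model fitted across both the association and dissociation phases of the sensorgram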

Binder | Response [1] | Kd [2] | koff [2] | kon [2]
75110_03D16A (antibody, V domains shown, Tested as non-clonal AlivaMab Mouse Kappa hybridoma supernatant, captured by anti-mouse IgG Fc sensor) VH: EVQLVESGGGLVQPGGSLRLSCAASGFTFSSYWMSWVRQAPGKGLEWVANINQDGGEKYYVDSVKGRFTISRDNAKNSLYLQMNSLRAEDTAVYYCVREGGQWLALDYWGQGTLVTVSS VL: DIQMTQSPSSVSASVGDRVTITCRASQGISSWLTWYQQKPGKAPKFLIYAASSLQSGVPSRFSGSGFGTDFTLTISSLQPEDFATYYCQQANSFPWTFGQGTKVEIK | 0.25 | 6 nM | 0.0013 s⁻¹ | 220000 M⁻¹ s⁻¹
75110_04K10A (antibody, V domains shown, Tested as non-clonal AlivaMab Mouse Kappa hybridoma supernatant, captured by anti-mouse IgG Fc sensor) VH: EVQLVESGGGLVQPGGSLRLSCAASGFTFSSYWMSWVRQAPGKGLEWVANINQDGSEKYYVDSVKGRFTISRDNAKNSLYLQLNSLRAEDTAMYYCAREGGQWLSLDYWGQGTLVTVSS VL: DIQMTQSPSSVSASVGDRVTITCRASQGISSWLAWYQQKPGKAPKVLIYGVSSFQSGVPSRFSGSGSGTDFILTISSLQPEDFATYYCQQANSFPWTFGQGTKVEIK | 0.23 | 6.3 nM | 0.0018 s⁻¹ | 290000 M⁻¹ s⁻¹
75110_07H07A (antibody, V domains shown, Tested as non-clonal AlivaMab Mouse Kappa hybridoma supernatant, captured by anti-mouse IgG Fc sensor) VH: EVQVVESGGGLVQPGGSLRLSCAASGFTFSSYWMSWVRQAPGKGLEWVANIKEEGSEKYYVDSVKGRFTISRDNAKNSLYLQMNSLRAEDTAVYYCVREGGQWLALDYWGQGTLVTVSS VL: DIQMTQSPSSVSGSVGDRVTITCRASQGISSWLAWYQQKPGKAPKLLIFGASSLQSGVPSRFSGSGSGTDFTLTISSLQPEDFATYYCQQANSFPWTFGQGTKVQIK | 0.2 | 3.1 nM | 0.00035 s⁻¹ | 110000 M⁻¹ s⁻¹
75110_09G15A (antibody, V domains shown, Tested as non-clonal AlivaMab Mouse Kappa hybridoma supernatant, captured by anti-mouse IgG Fc sensor) VH: EVQLVESGGGLVQPGGSLRLSCAASGFTFSDYWMSWVRQAPGKGLEWVANINQDGSEKYSVDSVKGRFTISRDNAKNSLYLQMNSLRAEDTAIFYCAREGGQWLALDYWGQGTLVTVSS VL: DIQMTQSPSSVSASVGDRVTITCRASQGISSWLAWYQQKPGKAPKLLIYGASSLQSGVPSRFSGSGSGTDFTLTINSLQPEDFTTYYCQQANIFPWTFGQGTKVEIK | 0.1 | 290 nM | 0.011 s⁻¹ | 37000 M⁻¹ s⁻¹
75110_09N20A (antibody, V domains shown, Tested as non-clonal AlivaMab Mouse Kappa hybridoma supernatant, captured by anti-mouse IgG Fc sensor) VH: EVQLVESGGGLVQPGGSLRLSCAASGFTFSSYWMSWVRQAPGKGLEWVANINEDGSEKYYVDSVKGRFTISRDNAKNSLYLQMNSLRAEDTAVYYCVREGGQWLALDYWGQGTLVTVSS VL: DIQMTQSPSSVSASVGDRVTITCRASQGISSWLAWYQQKPGKAPKLLIYAASSLQSGVPSSFSGSGSGTDFTLTINSLQPEDFATYYCQQANSFPWTFGQGTKVAIK | 0.13 | 15 nM | 0.0019 s⁻¹ | 130000 M⁻¹ s⁻¹
75110_12C19A (antibody, V domains shown, Tested as non-clonal AlivaMab Mouse Kappa hybridoma supernatant, captured by anti-mouse IgG Fc sensor) VH: EVQLVESGGGLVQPGGSLRLSCAASGFTFSSYWMSWVRQAPGKGLEWVANIKEDGSDKYYVDSVKGRFTISRDNAKNSLYLQMNSLRAEDTAVHYCVREGGQWLALDYWGQGTLVTVSS VL: DIQMTQSPSSVSGSVGDRVTITCRASQGISSWLAWYQQKPGKAPKLLIYGASSLQSGVPSRFSGSGSGTDFTLTISSLQPEDFVTYYCQQANSFPWTFGQGTKVEIK | 0.106 | 0.627 nM | 9.63e-05 s⁻¹ | 154000 M⁻¹ s⁻¹
75110_12H17A (antibody, V domains shown, Tested as non-clonal AlivaMab Mouse Kappa hybridoma supernatant, captured by anti-mouse IgG Fc sensor) VH: EVQLVESGGGLVQPGGSLRLSCAASGFTFSDYWMSWVRQAPGKGLEWVANIKEDGNEKYYVDSVKGRFTISRDNAKNSLFLQMNSLRAEDTAVYYCAREGGQWLALDYWGQGALVTVSS VL: DIQMTQSPSSVSASVGDRVTITCRASQGISSWLAWYQQKPGKAPKFLISGASSLQSGVPSRFTGSGSGTDFTLTISSLQPEDFATYYCQQANSFPWTFGQGTKVEIK | 0.09 | 9.6 nM | 0.0032 s⁻¹ | 330000 M⁻¹ s⁻¹
75110_12H19A (antibody, V domains shown, Tested as non-clonal AlivaMab Mouse Kappa hybridoma supernatant, captured by anti-mouse IgG Fc sensor) VH: EVQLVESGGGLVQPGGSLRLSCAASGFTFSSYWMSWVRQAPGQGLEWVANINEDGNEKYHVDSVKGRLTISRDNAKNSLYLQMNSLRGVDTAVYFCAREGGQWLALDYWGQGALVTVSS VL: DIQMTQSPSSVSASVGDRVSITCRASQGISSWLAWYQQKPGKAPKLLIYGASGLQSGVPSRFSGSGSGTDFTLTISSLQPEDFATYYCQQANSFPWTFGQGTKVEIK | 0.09 | 4.2 nM | 0.0012 s⁻¹ | 290000 M⁻¹ s⁻¹
75110_04B08A (antibody, V domains shown, Tested as non-clonal AlivaMab Mouse Kappa hybridoma supernatant, captured by anti-mouse IgG Fc sensor) VH: QVQLVESGGGVVQPGRSLRLSCTASGFNFINYGIHWVRQAPGKGLEWVTIIWYDGSKKYYADSVKGRFAISRDNSKNTLYLQMNSLRAEDTAVYYCAREDDWNDGLAYWGQGTLVTVSS VL: AIQMTQSPSSLSASVGDRVTITCRASQDIRNDLGWYQQKPGKAPNLLIYAASNLQSGVPSRFSGSGSGTDFTLTISSLQPEDFATYYCLQDSNYPRTFGQGTKVEIK | 0.14 | 5.2 nM | 0.0012 s⁻¹ | 230000 M⁻¹ s⁻¹
75110_05L07A (antibody, V domains shown, Tested as non-clonal AlivaMab Mouse Kappa hybridoma supernatant, captured by anti-mouse IgG Fc sensor) VH: EVQLVESGGGLVQPGGSLRLSCAASGFTFSSYWMSWVRQAPGKGLEWVANINQDGSDKYYVDSVKGRFTISRDNVKNSLYLQINSLRAEDTAVYYCAREGGQWLTLDYWGQGTLVTVSS VL: not shown | 0.12 | 13 nM | 0.0014 s⁻¹ | 100000 M⁻¹ s⁻¹
75110_01J09A (antibody, V domains shown, Tested as non-clonal AlivaMab Mouse Kappa hybridoma supernatant, captured by anti-mouse IgG Fc sensor) VH: EVQLVESGGGLVQPGGSLRLSCVASGFTFSSYWMSWVRQAPGKGLEWVANTKEDGSDKYYVDSVKGRFTICRDNAKNSLYLQMNSLRAEDTAVYYCAREGGQWLALDYWGQGTLVTVSS VL: DIQMTQSPSSVSASVGDRVTINCRASQGISSWLAWYQQKPGKAPNLLIFGASSLQSGVPSRFSGSGFGTDFSLTITTLQPEDFATYHCQQANSFPWTFGQGTKVEIK | 0.28 | 11 nM | 0.0013 s⁻¹ | 120000 M⁻¹ s⁻¹
75110_02E08A (antibody, V domains shown, Tested as non-clonal AlivaMab Mouse Kappa hybridoma supernatant, captured by anti-mouse IgG Fc sensor) VH: QVQLQESGPGLVKPSETLSLTCTVSGGSISTYYWTWIRQPAGKGLEWIGRVYTSGDTNYNPSLKSRVAMSLDTSKNQFSLKLSSVTAADTAVYYCARDSGALYSWNYGDAFDIWGQGTMVTVSS VL: DIQMTQSPSAMSASVGDRVTITCRASQDISNYLAWFQQKPGKVPKRLIYAASSLQSGVPSRFSGSGSGTEFTLTISSLQPEDFATYYCLQHNSYPRTFGQGTKVEIK | 0.08 | 1.5 nM | 0.00051 s⁻¹ | 330000 M⁻¹ s⁻¹
75110_03C01A (antibody, V domains shown, Tested as non-clonal AlivaMab Mouse Kappa hybridoma supernatant, captured by anti-mouse IgG Fc sensor) VH: QVQLQQWGAGLLKPSETLSLTCAVYGGSFSGYYWSWIRQSPGKGLEWIGEINQSGSTNYNPSLKSRVTISVDTSKDQFSLKLSSVTAADTAVYYCARVINWFDSWGQGSLVTVSS VL: DIQMTQSPSSVSASVGDRVTITCRASQGISSWLAWYQQKPGNAPKLLIYDASSFQSGVPSRFSGSGSGTDFTLTISSLQTEDFATYYCQQANSFPYTFGQGTKLEIK | 0.09 | < 0.001 nM | < 1e-07 s⁻¹ | 150000 M⁻¹ s⁻¹
75110_07B16A (antibody, V domains shown, Tested as non-clonal AlivaMab Mouse Kappa hybridoma supernatant, captured by anti-mouse IgG Fc sensor) VH: QVQLQQWGAGLLKPSETLSLTCAVYGGSFSGYYWSWIRQSPGKGLEWIGEINQSGSTNYNPSLKSRVTISVDTSKDQFSLKLSSVTAADTAVYYCARVINWFDSWGQGSLVTVSS VL: DIQMTQSPSSVSASVGDRVTITCRASQGISSWLAWYQQKPGKAPKLLIYDASSFQSGVPSRFSGSGSGTDFTLTISSLQTDDFATYYCQQANSFPYTFGQGTKLEIK | 0.21 | 0.79 nM | 0.00013 s⁻¹ | 160000 M⁻¹ s⁻¹
75110_03L12A (antibody, V domains shown, Tested as non-clonal AlivaMab Mouse Kappa hybridoma supernatant, captured by anti-mouse IgG Fc sensor) VH: QVQLQQWGAGLLKPSETLSLTCAVYGGSFSGYYWSWIRQPPGKGLEWIGEINHSGSTNYNPSLKSRVTISVDTSENQFSLTLISVTAADTAVYYCVRLINWFDPWGQGTLVTVSS VL: DIQMTQSPSSVSASVGDRVTITCRASQDISNWLAWYQQKPGKAPKLLIFAASSLQSGVPSRFSGSGSGTDFTLTISSLQPDDFATYYCQQANSFPYTFGQGTNLGIK | 0.21 | 2.8 nM | 0.00048 s⁻¹ | 170000 M⁻¹ s⁻¹
75110_01D24A (antibody, V domains shown, Tested as non-clonal AlivaMab Mouse Kappa hybridoma supernatant, captured by anti-mouse IgG Fc sensor) VH: QVQLQQWGAGLLKPSETLSLTCAVYGGSFSGYYWSWIRQPPGKGLEWIGEINHSGSTNYNPSLKSRVTISVDTSENQFSLKLNSVTAADTAVYYCARLVNWFDPWGQGTLVTVSS VL: EIQMTQSPSSVSASVGDRVTITCRASQDISNWLAWYQQKPGKAPNLLIFAASSLQTGVPSRFSGSGSGTDFTLTISSLQPDDFATYYCQQANSFPYSFGQGTNLGIK | 0.26 | 1.1 nM | 0.00013 s⁻¹ | 110000 M⁻¹ s⁻¹
75110_04P08A (antibody, V domains shown, Tested as non-clonal AlivaMab Mouse Kappa hybridoma supernatant, captured by anti-mouse IgG Fc sensor) VH: QVQLQQWGAGLLKPSETLSLTCAVYGGSLSGYYWSWIRQSPGKGLEWIGEINQSGSTNYNPSLKSRVTISVDTSKDQFSLRLTSVTAADTAVYYCTRVLNWFDPWGRGTLVTVSS VL: DIQMTQSPSSVSASVGDRVTLTCRASQDISNWLAWYQQKPGKAPKLLIYAASSLQSGVPSRFSGSGSGTDFTLTISSLQTEDFATYYCQQANSFPYTFGQGTKLEIK | 0.17 | 1.8 nM | 0.00022 s⁻¹ | 120000 M⁻¹ s⁻¹
75110_05B13A (antibody, V domains shown, Tested as non-clonal AlivaMab Mouse Kappa hybridoma supernatant, captured by anti-mouse IgG Fc sensor) VH: QVLLEQWGAGLLKPSETLSLTCAVYGGSFSGYYWTWIRQPPGKGLEWIGEINHRGSTNYNPSLKSRVTISIDTSKNQFSLKVKSVTAADTAMYYCTRPDSNWFDPWGQGTLVTVSS VL: DIQMTQSPSSVSASVGDRVTITCRASQDISNWLAWYQQKPGKAPKLLIFAASSLQSGVPSRFSGSGSGTDFTLTISSLQPEDFATYYCQQANSFPLTFGGGTKVEIK | 0.03 | < 0.001 nM | < 1e-07 s⁻¹ | 200000 M⁻¹ s⁻¹
75110_06D16A (antibody, V domains shown, Tested as non-clonal AlivaMab Mouse Kappa hybridoma supernatant, captured by anti-mouse IgG Fc sensor) VH: QVQLQQWGAGLLKPSETLSLTCAVYGGSFSGYYWSWIRQPPGKGLEWIGEINHSGSTNYNPSLKSRVTISVVTSKNQFSLKLSSVTAADTAVYYCARVLNWFDPWGQGTLVTVSS VL: DIQMTQSPSSVSASVGDRVTITCRASQDIADWLAWYQQKPGKAPKLLIYAASSFQSGVPSRFSGSGSGTDFTLTISSLQPEDFATYFCQQANSFPYTFGQGTKLEIK | 0.09 | 2.5 nM | 0.00047 s⁻¹ | 190000 M⁻¹ s⁻¹
